# B1: anti-human DNAM-1 monoclonal antibody No. 4 (antibody, V domains shown)
# VH: KWGLSEISCKASGYTFTDYNMHWVKQSHGKSLEWIGYIYPYNGGTGYNQKFKSKATLTVDNSSSTAYMELRSLTSEDSAVYYCAGYWYFDVWGAGTTVTVSS
# VL: EKVSITCKASQDVGTAVAWYQQKPGQSPKLLIYWASTRHTGVPDRFTGSGSGTDFTLTISNVQSEDLADYFCQQYSSYPWTFGGGTKLEIKR
# notes: Mouse hybridoma monoclonal antibody
# B2: anti-human DNAM-1 monoclonal antibody No. 3 (antibody, V domains shown)
# VH: EISCKASGYTFTNYWLGWVKQRPGHGLEWIGDIYPGGGYTNYNEKFKGKATLTADTSSSTAYMQLSSLTSEDSAVYFCANAYYRYKGFAYWGQGTLVTVSA
# VL: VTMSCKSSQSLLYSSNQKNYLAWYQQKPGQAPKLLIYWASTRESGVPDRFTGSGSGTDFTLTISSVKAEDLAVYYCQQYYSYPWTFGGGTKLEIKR
# notes: as for B1
# B3: anti-human DNAM-1 monoclonal antibody No. 1 (antibody, V domains shown)
# VH: SQSLSLTCSVTGYSITSGYYWNWIRQFPGNKLEWMGYISYDGSNNYNPSLKNRISITRDTSKNQFFLKLNSVTTEDTATYYCARAYYGNYVGYFDVWGAGTTVTVSS
# VL: RVTITCKASQSVSNDVAWYQQKPGQSPKLLIYYASNRYTGVPDRFTGSGYGTDFTFTISTVQAEDLAVYFCQQDYSSPLTFGAGTKLELKR
# notes: as for B1
# B4: anti-human DNAM-1 monoclonal antibody No. 2 (antibody, V domains shown)
# VH: SQSLSLTCTVTGYSITSDYAWNWIRQFPGNKLEWMGYISYSGTTTYNPSLKSRISITRDTSKNQFFLQLNSVTTEDTATYYCAELSMDYWGQGTSVTVSS
# VL: DIVLSQSPAILSVSPGERVSFSCRASQSIGTSIHWYQQRTNGSPRLLIKYASESISGIPSRFSGSGSGTDFTLSINSVESEDIADYYCQQSRSWPLTFGAGTKLELKR
# notes: as for B1
# Columns and labels:
# [1] = molecular target: T1, human DNAX accessory molecule-1 (DNAM-1) protein (human, UniProt Q15762 19-336); assay: flow cytometry; 1x10^5 DNAM-1/BW cells pre-saturated with 1000 ng hCD155-Fc (competitor); remaining hCD155-Fc detected
# T1 construct: whole, on cells; Expressed on BW5147 mouse lymphocyte cells (DNAM-1/BW) or present on human peripheral blood lymphocytes / CD8+ T cells; also called CD226; human DMAM-1 protein
# T1 sequence (looked up): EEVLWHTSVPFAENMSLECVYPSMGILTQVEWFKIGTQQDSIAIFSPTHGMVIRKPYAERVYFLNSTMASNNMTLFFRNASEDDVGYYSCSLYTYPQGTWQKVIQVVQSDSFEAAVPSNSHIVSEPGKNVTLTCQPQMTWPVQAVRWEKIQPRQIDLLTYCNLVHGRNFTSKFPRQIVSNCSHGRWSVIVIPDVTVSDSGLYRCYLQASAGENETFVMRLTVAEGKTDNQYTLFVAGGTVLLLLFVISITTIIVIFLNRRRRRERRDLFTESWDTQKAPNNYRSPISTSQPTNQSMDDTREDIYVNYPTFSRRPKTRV
# Procedure: After DNAM-1/BW cells reacted with the hCD155-Fc protein in advance had been reacted with a specific one of the monoclonal antibody No. 1 to No. 6 diluted serially in Test example 6, the hCD155-Fc protein bound to the DNAM-1 protein present on the surfaces of the DNAM-1/BW cells was detected. The detection of the hCD155-Fc protein was conducted using an anti-human IgG antibody. The reaction was made on ice for 30 minutes.
# It was also confirmed that, in the range where the concentration of the monoclonal antibody reacted with the DNAM-1/BW cells was low, the reidues of hCD155-Fc protein after the DNAM-1/BW cells had been reacted with the monoclonal antibody No. 3 was smaller than that of hCD155-Fc protein after the DNAM-1/BW cells had been reacted with the monoclonal antibody No. 2. This proves that, in the range where the concentration of the monoclonal antibody reacted with the DNAM-1/BW cells was low, the monoclonal antibody No. 3 had higher activity of inhibiting the interaction between the DNAM-1 protein and the CD155 protein than the monoclonal antibody No. 2. In the range where the concentration of the monoclonal antibody reacted with the DNAM-1/BW cells was high, the difference in the above reactivity between the monoclonal antibody Nos. 2 and 3 was small. The amount of monoclonal antibody No. 3 required for completely inhibiting the interaction between the DNAM-1 protein and the CD155 protein was 300 ng.
# [2] = molecular target: T1, human DNAX accessory molecule-1 …; assay: flow cytometry on 1x10^5 DNAM-1/BW cells
binder,measurement,setting,value
B1,amount required for completely inhibiting the interaction between the DNAM-1 protein and the CD155 protein,[1],1000 ng
same,minimum amount required for saturating human DNAM-1 on 1x10^5 DNAM-1/BW cells,[2],100 ng
B2,amount required for completely inhibiting the interaction between the DNAM-1 protein and the CD155 protein,[1],300 ng
same,minimum amount required for saturating human DNAM-1 on 1x10^5 DNAM-1/BW cells,[2],100 ng
B3,amount required for completely inhibiting the interaction between the DNAM-1 protein and the CD155 protein,[1],100 ng
same,minimum amount required for saturating human DNAM-1 on 1x10^5 DNAM-1/BW cells,[2],30 ng
B4,amount required for completely inhibiting the interaction between the DNAM-1 protein and the CD155 protein,[1],300 ng
same,minimum amount required for saturating human DNAM-1 on 1x10^5 DNAM-1/BW cells,[2],50 ng

# Source: US20190127462A1 (UNIVERSITY OF TSUKUBA, published 2019)
